Reference: patent US9675707B2, “Anti-TAT226 antibodies and immunoconjugates” (GENENTECH, INC., priority 2006, dated 2017)
Where a SMILES comes first, the peptide text is derived from it. [ ]: non-standard residue; d: D form. The star is where a group is joined. Dolaproine = CO[C@@H]([C@@H]1CCCN1)[C@@H](C)C(=O)O; Dil = CC[C@H](C)[C@H](NC)[C@@H](CC(=O)O)OC; X1 = C[C@@H](N*)[C@@H](O)c1ccccc1; NMeV = CN[C@H](C(=O)O)C(C)C

B1: YWO.49.B7: affinity matured anti-TAT226 antibody derived from YWO.49, reformatted as full-length IgG (antibody, V domains shown)
VH: EVQLVESGGGLVQPGGSLRLSCAASGFTITNYGIHWVRQAPGKGLEWVGRIYPDSGATYYADSVKGRFTISADTSKNTAYLQMNSLRAEDTAVYYCARKLWVSLAAMDYWGQGTLVTVSS
VL: DIQMTQSPSSLSASVGDRVTITCRASQDVSTAVAWYQQKPGKAPKLLIYSASFLYSGVPSRFSGSGSGTDFTLTISSLQPEDFATYYCQRSVFTPPAFGQGTKVEIKR
B2: YWO.49.H6: affinity matured anti-TAT226 antibody derived from YWO.49, reformatted as full-length IgG (antibody, V domains shown)
VH: EVQLVESGGGLVQPGGSLRLSCAASGFTITNYGIHWVRQAPGKGLEWVGRIYPDSGATYYADSVKGRFTISADTSKNTAYLQMNSLRAEDTAVYYCARKLWISIAGMDYWGQGTLVTVSS
VL: DIQMTQSPSSLSASVGDRVTITCRASQDVSTAVAWYQQKPGKAPKLLIYSASFLYSGVPSRFSGSGSGTDFTLTISSLQPEDFATYYCQHSYATPFTFGQGTKVEIKR
B3: YWO.49.H2: affinity matured anti-TAT226 antibody derived from YWO.49, reformatted as full-length IgG (antibody, V domains shown)
VH: EVQLVESGGGLVQPGGSLRLSCAASGFTITNYGIHWVRQAPGKGLEWVGRIYPDSGATYYADSVKGRFTISADTSKNTAYLQMNSLRAEDTAVYYCARKLWVSLAPMDYWGQGTLVTVSS
VL: DIQMTQSPSSLSASVGDRVTITCRASQDVSTAVAWYQQKPGKAPKLLIYSASFLYSGVPSRFSGSGSGTDFTLTISSLQPEDFATYYCQQSYGTPFIFGQGTKVEIKR
B4: YWO.49.C9: affinity matured anti-TAT226 antibody derived from YWO.49, reformatted as full-length IgG (antibody, V domains shown)
VH: EVQLVESGGGLVQPGGSLRLSCAASGFTITNYGIHWVRQAPGKGLEWVGRIYPDSGATYYADSVKGRFTISADTSKNTAYLQMNSLRAEDTAVYYCARKLWVTLASMDYWGQGTLVTVSS
VL: DIQMTQSPSSLSASVGDRVTITCRASQDVSTAVAWYQQKPGKAPKLLIYSASFLYSGVPSRFSGSGSGTDFTLTISSLQPEDFATYYCQKSYNTPPTFGQGTKVEIKR

Columns and labels:
[1] = system: OVCAR3 cells; assay: OVCAR3 in vitro cell killing assay (CellTiter-Glo); type: cell-based, human; conditions: 5 days of incubation
Protocol: YWO.49.H2 and YWO.49.H6 ADCs were tested for the ability to inhibit proliferation of OVCAR3 cells. OVCAR3 cells were seeded in 96-well plates in RPMI with 20% FBS. Anti-MUC16/CA25 antibody conjugated to MC-vc-PAB-MMAE was used as a positive control. MUC16/CA25 is a known ovarian cancer antigen. See, e.g., Yin et al. (2001) J. Biol. Chem. 276:27371-27375. Anti-IL-8 antibody conjugated to MC-vc-PAB-MMAE was used as a negative control. After 5 days of incubation, cell viability was measured using the CellTiter-Glo™ Luminescent Cell Viability Assay (Promega, Madison, Wis.) according to the manufacturer's instructions. The scale on the y-axis of FIG. 17 indicates the relative light units, or “RLUs,” from luciferase luminescence, which is a measure of cell viability.

[2] = system: HCT116#9-4 cells; assay: In vitro cell killing assay using HCT116 transfected cells (CellTiter-Glo); type: cell-based, human; conditions: 3 days of incubation
Protocol: (§1) YWO.49.H2 and YWO.49.H6 ADCs were tested for the ability to inhibit proliferation of HCT116 cells, a colon cancer cell line, which had been stably transfected with nucleic acid encoding human TAT226. Untransfected HCT116 cells are normally about 5-6 fold less sensitive to free (unconjugated) MMAE than OVCAR3 cells.
Briefly, HCT116 cells were transfected as follows. Nucleic acid encoding epitope-tagged human TAT226 was constructed in the mammalian expression vector pcDNA3.1 (Invitrogen, Carlsbad, Calif.). The epitope tag consisted of amino acids 1-53 of the herpes simplex virus type 1 glycoprotein D (the “gD” tag), which replaced the signal sequence from amino acids 1-22 at the N-terminus of human TAT226. The recombinant vector was transfected into HCT116 cells using Lipofectamine200 (Invitrogen) according to the manufacturer's protocol. Transfected HCT116 cells were cultured in McCoy's 5a medium with 10% FBS and 0.4 mg/ml G418. Cells were stained using anti-gD antibodies and sorted by FACS to select for individual clones expressing recombinant gD:human TAT226 fusion protein. […]
To perform the cell killing assay, HCT116#9-4 cells were seeded in 96-well plates. […] After 3 days of incubation, cell viability was measured using the CellTiter-Glo™ Luminescent Cell Viability Assay (Promega, Madison, Wis.) according to the manufacturer's instructions.

[3] = system: Untransfected HCT116 cells; assay: Sensitivity of untransfected HCT116 cells to free MMAE; type: cell-based, human; conditions: untransfected HCT116 cells versus OVCAR3 cells
Protocol: as §1

[4] = molecular target: T1, TAT226-His (Homo sapiens, UniProt Q8N2G4); assay: Binding affinity for recombinant antigen by surface plasmon resonance (BIACORE 3000); conditions: immobilized antibody, TAT226-His 0.7 nM to 500 nM, 25° C., one-to-one Langmuir model; for kon/10^5: association rate; for koff/10^−4: dissociation rate
T1 construct: polyhistidine (C); made in house
T1 sequence (Q8N2G4 21-115): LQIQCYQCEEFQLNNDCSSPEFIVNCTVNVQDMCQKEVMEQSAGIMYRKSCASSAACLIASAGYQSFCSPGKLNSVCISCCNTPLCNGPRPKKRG
Protocol: The binding affinity of YWO.49, YWO.49.B7, YWO.49.C9, YWO.49.H2, and YWO.49.H6 for recombinant antigen was determined by surface plasmon resonance measurement using a BIACORE® 3000 system (Biacore, Inc., Piscataway, N.J.). Briefly, carboxymethylated dextran biosensor chips (CMS, Biacore Inc.) were activated with N-ethyl-N′-(3-dimethylaminopropyl)-carbodiimide hydrochloride (EDC) and N-hydroxysuccinimide (NHS) according to the supplier's instructions. Anti-TAT226 antibody was diluted to 5 ug/ml with 10 mM sodium acetate, pH 4.8, before injection at a flow rate of 5 ul/minute to achieve approximately 500 response units (RU) of coupled antibody. Next, 1M ethanolamine was injected to block unreacted groups. For kinetics measurements, two-fold serial dilutions of TAT226-His (0.7 nM to 500 nM) were injected in PBS with 0.05% Tween 20 at 25° C. at a flow rate of 25 μl/min. Association rates (kon) and dissociation rates (koff) were calculated using a simple one-to-one Langmuir binding model (BIAevaluation Software version 3.2). The equilibrium dissociation constant (Kd) was calculated as the ratio koff/kon.

[5] = molecular target: T2, TAT226 expressed on the surface of OVCAR3 (Homo sapiens, UniProt Q8N2G4); assay: FACS binding to TAT226 expressed on the surface of OVCAR3 cells; conditions: 5 μg/ml primary antibody, 1 hour on ice
T2 construct: TAT226 expressed on the surface of OVCAR3, a human ovarian cancer cell line; endogenous in cells; host or cells: OVCAR3
T2 sequence (Q8N2G4 21-117): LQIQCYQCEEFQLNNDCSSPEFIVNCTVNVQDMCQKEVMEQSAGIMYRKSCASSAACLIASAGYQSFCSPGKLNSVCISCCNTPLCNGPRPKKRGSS
Protocol: The ability of anti-TAT226 antibodies to bind to TAT226 expressed on the surface of OVCAR3, a human ovarian cancer cell line, was examined. Fluorescence-activated cell sorting (FACS) was performed on OVCAR3 cells in the absence and in the presence of YWO.49, YWO.49.B7, YWO.49.C9, YWO.49.H2, or YWO.49.H6. Briefly, detached cells were incubated with 5 μg/ml primary antibody for 1 hour on ice, washed, and incubated with secondary antibody (anti-human IgG conjugated to phycoerythrin) for 30 minutes on ice. FACS was performed using a FACScan™ flow cytometer (BD Biosciences, San Jose, Calif.).
The peaks on the left side of each graph represent “background” binding, i.e., binding of secondary antibody only. The peaks on the right side of each graph represent binding of the indicated anti-TAT226 antibody.

| Molecule | IC50 [1] [nM] | IC50 [2] [nM] | fold less sensitive than OVCAR3 cells [3] | kon/10^5 [4] | koff/10^−4 [4] | binding to OVCAR3 cells by FACS [5] |
| --- | --- | --- | --- | --- | --- | --- |
| CC[C@H](C)[C@@H]([C@@H](CC(=O)N1CCC[C@H]1[C@H](OC)[C@@H](C)C(=O)N[C@H](C)[C@@H](O)c1ccccc1)OC)N(C)C(=O)[C@@H](NC(=O)[C@@H](NC)C(C)C)C(C)C [free MMAE, mono-methyl auristatin E] (H-[NMeV]V[Dil][Dolaproine]-X1) | ~0.1 | ~0.9 | 5-6 fold | – | – | – |
| B1 | – | – | – | 0.27 | <0.05 | did not bind significantly |
| B2 | – | – | – | 1.86 | 0.09 | – |
| B3 | – | – | – | 0.22 | – | – |
| B4 | – | – | – | 1.53 | <0.05 | comparable to that observed for YWO.49.H2 and YWO.H6 |
